The values that follow come from article PMC5383425, “Differential CLE peptide perception by plant receptors implicated from structural and functional analyses of TDIF-TDR interactions” (PLoS ONE, 2017).

Square brackets hold non-standard residues; d marks the D form. Ends that are not written are not given here. Hyp = O=C(O)[C@@H]1C[C@@H](O)CN1

Test in all cases: ITC
For assay [1], the target named is T1, ecdTDR F281 alanine mutant (Arabidopsis thaliana, UniProt Q9FII5 30-642, alanine substitution of F281).
T1 sequence: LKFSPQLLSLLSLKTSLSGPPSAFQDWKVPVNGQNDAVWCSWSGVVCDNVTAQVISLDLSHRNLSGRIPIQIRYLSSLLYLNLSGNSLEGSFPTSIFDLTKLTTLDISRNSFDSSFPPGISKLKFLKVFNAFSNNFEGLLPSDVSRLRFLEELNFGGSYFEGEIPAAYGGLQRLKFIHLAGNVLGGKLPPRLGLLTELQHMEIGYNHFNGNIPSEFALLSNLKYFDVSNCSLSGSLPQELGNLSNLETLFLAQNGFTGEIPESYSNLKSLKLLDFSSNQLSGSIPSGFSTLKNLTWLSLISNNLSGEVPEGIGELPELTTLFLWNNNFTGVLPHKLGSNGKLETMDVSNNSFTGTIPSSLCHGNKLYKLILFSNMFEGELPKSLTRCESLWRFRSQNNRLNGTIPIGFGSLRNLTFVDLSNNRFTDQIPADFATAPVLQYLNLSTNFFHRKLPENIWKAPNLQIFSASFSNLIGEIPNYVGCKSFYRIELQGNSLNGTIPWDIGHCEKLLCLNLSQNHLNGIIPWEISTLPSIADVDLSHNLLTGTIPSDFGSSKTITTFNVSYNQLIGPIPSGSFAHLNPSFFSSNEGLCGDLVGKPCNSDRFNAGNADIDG

The target in assay [2] is T2, ecdTDR mutant with all five N-terminal anchoring site-binding residues replaced by alanine (Arabidopsis thaliana, UniProt Q9FII5 30-642).
T2 chain: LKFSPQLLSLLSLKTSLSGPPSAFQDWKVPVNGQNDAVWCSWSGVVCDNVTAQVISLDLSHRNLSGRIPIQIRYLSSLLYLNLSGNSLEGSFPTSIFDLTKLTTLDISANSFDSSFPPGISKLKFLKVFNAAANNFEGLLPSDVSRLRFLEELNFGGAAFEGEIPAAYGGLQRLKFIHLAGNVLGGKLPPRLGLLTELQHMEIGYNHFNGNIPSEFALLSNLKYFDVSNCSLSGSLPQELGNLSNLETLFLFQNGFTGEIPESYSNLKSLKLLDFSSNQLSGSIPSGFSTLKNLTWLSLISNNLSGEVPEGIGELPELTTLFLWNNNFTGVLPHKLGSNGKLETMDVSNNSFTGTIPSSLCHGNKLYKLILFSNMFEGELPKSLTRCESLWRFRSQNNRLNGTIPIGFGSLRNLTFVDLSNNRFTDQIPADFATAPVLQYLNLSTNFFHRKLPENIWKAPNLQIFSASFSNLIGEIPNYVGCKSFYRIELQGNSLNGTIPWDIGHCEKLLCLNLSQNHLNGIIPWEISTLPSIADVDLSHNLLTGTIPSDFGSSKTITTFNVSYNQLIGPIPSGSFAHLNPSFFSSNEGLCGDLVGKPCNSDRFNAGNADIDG

Assay [3] has as its target T3, ecdTDR Y234 alanine mutant (Arabidopsis thaliana, UniProt Q9FII5 30-642, alanine substitution of Y234).
T3 sequence: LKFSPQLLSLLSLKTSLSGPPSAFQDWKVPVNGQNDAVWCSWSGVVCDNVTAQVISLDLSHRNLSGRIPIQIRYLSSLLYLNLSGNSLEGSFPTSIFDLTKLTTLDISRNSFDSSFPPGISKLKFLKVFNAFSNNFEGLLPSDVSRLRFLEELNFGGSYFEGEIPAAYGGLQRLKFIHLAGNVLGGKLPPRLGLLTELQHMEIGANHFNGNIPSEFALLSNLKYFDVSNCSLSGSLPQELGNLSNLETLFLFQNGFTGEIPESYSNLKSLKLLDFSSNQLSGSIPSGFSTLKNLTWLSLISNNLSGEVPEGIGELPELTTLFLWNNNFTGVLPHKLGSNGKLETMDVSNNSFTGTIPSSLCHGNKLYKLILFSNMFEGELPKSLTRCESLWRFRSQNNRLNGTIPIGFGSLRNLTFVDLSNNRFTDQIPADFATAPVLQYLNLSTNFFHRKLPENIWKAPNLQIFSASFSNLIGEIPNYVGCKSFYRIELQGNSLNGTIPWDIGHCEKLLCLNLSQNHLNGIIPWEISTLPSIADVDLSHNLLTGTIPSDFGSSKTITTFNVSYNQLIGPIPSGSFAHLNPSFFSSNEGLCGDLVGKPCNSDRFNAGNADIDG

Assay [4] has as its target T4, TDR-R421A/R423A double mutant (ecdTDR) (Arabidopsis thaliana, UniProt Q9FII5 30-642, R421A | R423A).
T4 sequence: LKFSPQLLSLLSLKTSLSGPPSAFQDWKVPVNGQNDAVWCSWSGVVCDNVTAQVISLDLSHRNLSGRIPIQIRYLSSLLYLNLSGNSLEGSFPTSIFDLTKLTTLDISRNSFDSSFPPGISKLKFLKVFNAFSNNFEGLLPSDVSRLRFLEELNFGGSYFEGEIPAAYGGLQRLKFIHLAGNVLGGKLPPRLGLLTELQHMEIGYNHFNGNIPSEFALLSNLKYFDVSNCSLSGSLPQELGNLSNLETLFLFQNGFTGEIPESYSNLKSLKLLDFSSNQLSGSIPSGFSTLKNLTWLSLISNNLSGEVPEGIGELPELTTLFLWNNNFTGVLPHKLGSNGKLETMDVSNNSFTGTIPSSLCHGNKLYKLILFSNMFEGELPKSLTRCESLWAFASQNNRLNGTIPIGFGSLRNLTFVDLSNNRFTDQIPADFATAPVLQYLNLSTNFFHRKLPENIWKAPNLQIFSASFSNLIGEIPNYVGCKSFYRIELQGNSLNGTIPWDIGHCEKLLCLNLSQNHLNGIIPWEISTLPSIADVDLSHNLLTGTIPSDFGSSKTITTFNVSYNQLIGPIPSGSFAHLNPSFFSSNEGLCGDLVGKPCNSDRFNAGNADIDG

B1: Tracheary Element Differentiation Inhibitory Factor (TDIF) peptide (peptide)
peptide: HEV[Hyp]SG[Hyp]NPISN
notes: TDIF, the 12-residue CLE peptide processed from CLE41 and CLE44 of A. thaliana; printed as HEV(Hyp)SG(Hyp)NPISN; numbers count on: the 12-residue peptide; CLE44 encodes the same peptide; also called wild type TDIF; wtTDIF; source: synthetic peptide (peptide 2.0)
As to B1, the Kd is 787 nM in assay [1], 3240 nM in assay [2], 1650 nM in assay [3] and 306 nM in assay [4].
